# Experimental data: patent US20190275087A1, “EXPANSION AND DIFFERENTIATION OF STEM CELLS” (Allergan Pharmaceuticals International Limited, priority 2018, published 2019)
# B1: recombinant human tropoelastin (Elastagen) (ligand, UniProt P15502-2 27-724, looked up)
# chain: GGVPGAIPGGVPGGVFYPGAGLGALGGGALGPGGKPLKPVPGGLAGAGLGAGLGAFPAVTFPGALVPGGVADAAAAYKAAKAGAGLGGVPGVGGLGVSAGAVVPQPGAGVKPGKVPGVGLPGVYPGGVLPGARFPGVGVLPGVPTGAGVKPKAPGVGGAFAGIPGVGPFGGPQPGVPLGYPIKAPKLPGGYGLPYTTGKLPYGYGPGGVAGAAGKAGYPTGTGVGPQAAAAAAAKAAAKFGAGAAGVLPGVGGAGVPGVPGAIPGIGGIAGVGTPAAAAAAAAAAKAAKYGAAAGLVPGGPGFGPGVVGVPGAGVPGVGVPGAGIPVVPGAGIPGAAVPGVVSPEAAAKAAAKAAKYGARPGVGVGGIPTYGVGAGGFPGFGVGVGGIPGVAGVPGVGGVPGVGGVPGVGISPEAQAAAAAKAAKYGVGTPAAAAAKAAAKAAQFGLVPGVGVAPGVGVAPGVGVAPGVGLAPGVGVAPGVGVAPGVGVAPGIGPGGVAAAAKSAAKVAAKAQLRAAAGLGAGIPGLGVGVGVPGLGVGAGVPGLGVGAGVPGFGAVPGALAAAKAAKYGAAVPGVLGGLGALGGVGIPGGVVGAGPAAAAAAAKAAAKAAQFGLVGAAGLGGLGVGGLGVPGVGGLGGIPPAAAAKAAKYGAAGLGGVLGGAGQFPLGGVAARPGFGLSPIFPGGACLGKACGRKRK
# Key:
# [1] = test system: Human bone marrow-derived MSCs; assay: MSC proliferation (crystal violet cell abundance); type: cell-based
# Description: Human bone marrow-derived MSCs obtained from American Type Culture Collection (ATCC) were cultured in normal media, which consists of Alpha-Minimum Essential Medium (α-MEM) (Lonza) with 10% (v/v) FBS (Life Technologies) and 2.4 mM L-glutamine (Lonza), at 37° C. in a humidified normoxic incubator up to a maximum of 10 population doublings. Where indicated, the normal media was supplemented with 15 ng/mL IGF-1 (Life Technologies) and/or […] bFGF (Life Technologies), equivalent to the growth factor concentrations in the ATCC-recommended media. Cells were passaged once they reach 70-80% confluence.
# Where indicated, tissue culture plastic wells were coated with 20 μg/mL recombinant human tropoelastin (Elastagen) or 2 μg/mL fibronectin (Sigma-Aldrich®) in PBS (10 mM phosphate, 150 mM NaCl, pH 7.4) at 4° C. overnight. The protein solution was removed, and wells were washed three times with PBS to remove unbound protein prior to cell seeding.
# […] To prevent protein adhesion on the tissue culture substrate, wells were pre-incubated with normal media for 5 hours to enable surface blocking by serum proteins prior to cell seeding in supplemented media.
# Sub-confluent flasks of MSCs were treated with 0.05% (v/v) trypsin-EDTA (Sigma-Aldrich®) at 37° C. for 5 min to lift off adherent cells from the culture vessel. Trypsin was neutralized with two volumes of serum-containing growth media. Cells were centrifuged at 270 g for 5 min and resuspended in the required media. Cells were seeded at a density of 5000 cells/cm^2 on bare or protein-coated tissue culture plastic wells, in normal or supplemented media. Media was changed every 2 days. After specific time points, cells were fixed with 3% (v/v) formaldehyde at room temperature for 20 min, washed with PBS, then stained with 0.1% (w/v) crystal violet in 0.2 M MES buffer for 1 hour. Excess stain was washed off four times with reverse osmosis water. The retained stain was solubilized with 10% (v/v) acetic acid and sample absorbance values indicative of cell abundance were read at 570 nm. Sample absorbance values were subtracted by baseline values (corresponding to cell numbers in serum-free media, or cell numbers on day 1 post-seeding) and expressed as a fraction of the highest absorbance among all samples on day 7 post-seeding.
# [2] = test system: MSCs; assay: Flow cytometry of MSC surface marker expression; type: cell-based, Human
# Description: MSCs cultured for 5 or 7 days in various media formulations and on bare or protein-coated tissue culture wells were trypsinised and pelleted. The cell pellets were washed with 0.22 μm filtered FACS buffer (5% v/v FBS in PBS) and re-centrifuged at 270 g for 5 min. The cells were resuspended in FACS buffer to a concentration of 100,000 cells in 100 μL total volume, and probed for MSC marker expression using the Human Mesenchymal Stem Cell Verification Flow Kit (R&D Systems®). Isotype and unstained control samples were prepared using MSCs cultured in standard growth media on tissue culture plastic. Cells were analyzed using a BD™ Biosciences LSR II Flow Cytometer System. Singlet cells were determined by their forward scatter-to-side scatter and scatter height-to-width ratios, while viable cells were identified by exclusion of 1:20 propidium iodide. Only singlet, viable cells were analyzed for marker expression.
# [3] = tropoelastin substrate, normal media
# [4] = tropoelastin substrate, unsupplemented 7% FBS media, 7 days
# [5] = tropoelastin-coated surfaces, all media formulations, 5 days post-seeding
molecule,measurement,setting,value
B1,increase in cell proliferation compared to normal media or media with IGF-1,"[1]; 1 μg/mL in solution, 7 days",18±5%
same,increase in cell proliferation compared to normal media or media with IGF-1,"[1]; 20 μg/mL in solution, 7 days",69±7%
same,improved MSC proliferation over substrate-bound tropoelastin,"[1]; 20 μg/mL in solution, 7 days post-seeding",80±8%
same,increase in MSC proliferation by substrate-bound tropoelastin over TCP,"[1]; 7% FBS media with IGF-1, 7 days",49±1%
same,increase in MSC proliferation by substrate-bound tropoelastin over TCP,"[1]; 7% FBS media with bFGF, 7 days",40±3%
same,increase in MSC proliferation by substrate-bound tropoelastin over TCP,"[1]; 7% FBS media with both growth factors, 7 days",29±3%
same,increase in MSC proliferation by substrate-bound tropoelastin over TCP,"[1]; 7% FBS, unsupplemented media, 7 days",97±19%
same,tropoelastin-mediated proliferative increase over bare TCP,"[1]; 10% FBS media with IGF-1, 7 days",41±1%
same,tropoelastin-mediated proliferative increase over bare TCP,"[1]; 10% FBS media with IGF-1 and bFGF, 7 days",16±3%
same,tropoelastin-mediated proliferative increase over bare TCP,"[1]; 10% FBS media with bFGF, 7 days",16±2%
same,serum reduction at which cell expansion remained unaffected,"[1]; 7 days post-seeding, substrate-bound tropoelastin without growth factors, or IGF-1 and bFGF in media on TCP",≤ 40%
same,serum reduction at which MSC numbers significantly decreased,"[1]; coated surface, until 3 days post-seeding",80%
same,increase in cell numbers on tropoelastin-coated TCP over bare TCP,"[1]; normal 10% (v/v) serum media, 7 days",39±3%
same,MSC propagation relative to bFGF,"[1]; soluble 5 μg/mL, until 7 days post-seeding",comparable to bFGF
same,MSC expansion relative to media containing both IGF-1 and bFGF,"[1]; soluble 20 μg/mL, full serum media",equivalent to that in media containing both growth factors
same,more potent than bFGF for MSC propagation,"[1]; soluble 20 μg/mL, until 7 days post-seeding",18±5%
same,MSC expansion surpassing bFGF,"[1]; soluble, at and above 1 μg/mL, 3 days post-seeding",up to 74±2%
same,improved MSC proliferation compared to IGF-1 and bFGF in tandem,"[1]; substrate-bound tropoelastin, 40% decrease in serum (6% FBS), 7 days",23±3%
same,serum reduction tolerated without deleterious effects to proliferation,"[1]; surface-bound tropoelastin with growth factors in media, after 5 days post-seeding",≤ 20%
same,serum reduction allowed,"[1]; surface-bound tropoelastin with growth factors in media, until 5 days post-seeding",40%
same,proliferation compared to cells on TCP in media with bFGF,[1]; [3],similarly
same,proliferation more than cells on TCP in media with IGF-1,[1]; [3],36±3%
same,decreased expansion compared to cells on TCP in media containing both IGF-1 and bFGF,"[1]; tropoelastin substrate, normal media, no additional factors",14±2%
same,abundance compared to cells on TCP in media with both growth factors,[1]; [4],equivalent in abundance
same,greater expansion relative to cells on TCP in media with IGF-1,[1]; [4],59±15%
same,greater expansion relative to cells on TCP in media with bFGF,[1]; [4],37±13%
same,MSC marker expression profile,[2]; 20 μg/mL soluble in media,"displayed characteristic CD90+, CD105+, CD73+ and lineage negative expression profiles"
same,MSC phenotype (marker expression),"[2]; substrate-bound, replacing one or both growth factors, full or reduced serum media",fully retained
same,"cells expressing positive MSC markers CD90, CD105 and CD73",[2]; [5],more than 95%
same,"cells lacking hematopoietic markers CD34, CD45, CD11b, CD79a and HLA-DR",[2]; [5],more than 98%
